In patent publication US20030148460:

Experiments:
uteroferrin = uteroferrin (UniProt P09889)
UniProt P09889, sequence (P09889 22-340): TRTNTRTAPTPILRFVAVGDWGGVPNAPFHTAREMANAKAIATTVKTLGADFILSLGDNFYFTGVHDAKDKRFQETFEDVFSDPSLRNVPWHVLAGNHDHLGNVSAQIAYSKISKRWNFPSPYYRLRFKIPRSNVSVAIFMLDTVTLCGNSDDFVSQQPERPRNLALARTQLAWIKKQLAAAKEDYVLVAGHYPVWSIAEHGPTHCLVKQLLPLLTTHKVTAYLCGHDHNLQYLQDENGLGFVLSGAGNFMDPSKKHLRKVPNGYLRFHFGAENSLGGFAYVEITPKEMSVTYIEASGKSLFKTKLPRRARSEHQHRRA

## bovine GlcNAc-phosphotransferase (UDP-N-acetylglucosamine: lysosomal enzyme N-Acetylglucosamine-1-phosphotransferase)
uteroferrin
  Km as acceptor for transfer of GlcNAc-1-P: Both uteroferrin and cathepsin D are effectively utilized as acceptors by purified GlcNAc-phosphotransferase with Kms below 20 µM
RNAse B
  Km as acceptor for transfer of GlcNAc-1-P: the Km was not reached at the solubility limit of the protein (at 600 µM)
Cathepsin D
  Km as acceptor for transfer of GlcNAc-1-P: Both uteroferrin and cathepsin D are effectively utilized as acceptors by purified GlcNAc-phosphotransferase with Kms below 20 µM
